The values below come from paper PMC9133651, “Elucidation of physico-chemical principles of high-density lipoprotein–small RNA binding interactions”.

This series deals with apolipoprotein A-I (lipid-free) (Homo sapiens, UniProt P02647 25-267). In words: MST; Kd only in figure; MST: 100 nM AF647 oligo (90 C 2 min, cooled) mixed 1:1 with ligand in PBS, RT, 5 min; EMSA: 1 uM AF546 oligo, UV 254 nm 15 min on ice, 4-16% NativePAGE, 0.5x TBE. The conditions noted are these: protein: native; label: 3' Alexa Fluor 647.
Sequence of apolipoprotein A-I (lipid-free) (P02647 25-267): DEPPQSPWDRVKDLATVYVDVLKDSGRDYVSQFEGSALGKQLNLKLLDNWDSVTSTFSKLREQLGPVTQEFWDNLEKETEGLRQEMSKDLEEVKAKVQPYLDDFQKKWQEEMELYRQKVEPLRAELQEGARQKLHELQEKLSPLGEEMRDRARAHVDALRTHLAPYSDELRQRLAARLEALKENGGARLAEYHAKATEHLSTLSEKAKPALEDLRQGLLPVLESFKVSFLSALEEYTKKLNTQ

B1: miR-375-3p (ssRNA)
RNA: UUUGUUCGUUCGGCUCGCGUGA
Consider B1, for which the binding result was “binds”.

B2: tDR-GluCTC-30 (ssRNA)
RNA: CCUGGUGGUCUAGUGGUUAGGAUUCGGCGC
In the case of B2, the binding result is given as “binds”.

B3: miR-223-3p (ssRNA)
RNA: UGUCAGUUUGUCAAAUACCCCA
For the molecule B3, the binding result was “binds”.
